Measurements as given in PMC3553676.

Tests used:
Ku [1] = biological target: T1, Ku (Mycobacterium smegmatis, UniProt A0R3S7 1-318); test: EMSA
T1 sequence: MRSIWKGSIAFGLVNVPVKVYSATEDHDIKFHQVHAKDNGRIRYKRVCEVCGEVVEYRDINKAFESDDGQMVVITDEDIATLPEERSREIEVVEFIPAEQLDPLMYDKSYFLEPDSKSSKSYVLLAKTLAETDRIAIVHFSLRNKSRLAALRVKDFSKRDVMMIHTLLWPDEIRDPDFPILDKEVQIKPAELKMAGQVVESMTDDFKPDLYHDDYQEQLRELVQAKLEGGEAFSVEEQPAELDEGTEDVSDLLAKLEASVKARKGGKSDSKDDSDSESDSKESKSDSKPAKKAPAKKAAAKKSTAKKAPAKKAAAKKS

Ku [2] = biological target: T1, Ku; test: EMSA; remark: listed apart in the source

B1: 37 bp DNA (dsDNA)
DNA 1: CCTAGGCTACACCTACTCTTTGTAAGAATTAAGCTTC
DNA 2: GAAGCTTAATTCTTACAAAGAGTAGGTGTAGCCTAGG
Kd (Ku [1]): 8.6 ± 0.5 nM

B2: 21/34 nt hairpin substrate (structured_DNA)
DNA 1: GTTTTTAGTTTATTGGGCGCG
DNA 2: CGCGCCCAGCTTTCCCAGCTAATAAACTAAAAAC
binding result (Ku [2]): binds
